B1: Fab B11 (Fab, V domains shown)
VH: EVQLVESGGGLVQPGGSLRLSCAASGFNISSSSIHWVRQAPGKGLEWVASISPYYSSTSYADSVKGRFTISADTSKNTAYLQMNSLRAEDTAVYYCARGPGYAMDYWGQGTLVTVSS
VL: DIQMTQSPSSLSASVGDRVTITCRASQSVSSAVAWYQQKPGKAPKLLIYSASSLYSGVPSRFSGSRSGTDFTLTISSLQPEDFATYYCQQYYYAPITFGQGTKVEIK
B2: Fab B11 displayed on phage (Fab, V domains shown)
VH: B1 VH
VL: B1 VL

Experiments:
[1] = target: full-length p67 of Theileria parva with a C-terminal His-tag (Theileria parva, strain not told, UniProt Q4MZ78); assay: BLI
[2] = target: His-p67C (p67 residues 572-651) (Theileria parva, strain not told, UniProt Q4MZ78); assay: ELISA
ubiquitin = ubiquitin (Homo sapiens (assumed; species not …, UniProt P0CG48); assay: ELISA
[3] = target: T1, p67C^1 (p67 residues 572-612) (Theileria parva, UniProt Q4MZ78); assay: ELISA
T1 chain: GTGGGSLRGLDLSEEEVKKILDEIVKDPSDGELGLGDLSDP

bovine serum albumin = bovine serum albumin (Bos taurus, UniProt P02769); assay: ELISA
Chain of bovine serum albumin (P02769 25-607): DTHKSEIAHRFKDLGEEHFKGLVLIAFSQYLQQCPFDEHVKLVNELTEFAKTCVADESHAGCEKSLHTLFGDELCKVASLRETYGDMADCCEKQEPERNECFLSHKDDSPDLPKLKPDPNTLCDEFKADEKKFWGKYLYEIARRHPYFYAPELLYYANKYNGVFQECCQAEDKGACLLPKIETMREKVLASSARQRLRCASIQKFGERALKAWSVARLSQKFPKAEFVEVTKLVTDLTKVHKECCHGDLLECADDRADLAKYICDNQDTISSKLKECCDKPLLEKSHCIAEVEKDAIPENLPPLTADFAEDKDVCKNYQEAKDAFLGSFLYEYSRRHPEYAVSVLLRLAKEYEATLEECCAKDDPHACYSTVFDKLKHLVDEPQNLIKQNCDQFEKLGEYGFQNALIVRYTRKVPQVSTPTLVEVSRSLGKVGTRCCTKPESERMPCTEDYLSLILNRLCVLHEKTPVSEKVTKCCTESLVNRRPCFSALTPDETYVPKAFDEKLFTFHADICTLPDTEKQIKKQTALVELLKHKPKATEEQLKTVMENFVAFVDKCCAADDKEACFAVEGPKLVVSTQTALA

the fusion tag (GST) = the fusion tag (GST) (Schistosoma japonicum (assumed, usual …, UniProt P08515 = GST)); assay: ELISA

| Binder | Kd [1] [nM] | EC50 [2] [nM] | binding result (ubiquitin) | binding result [3] | binding result (bovine serum albumin) | binding result (the fusion tag (GST)) |
| --- | --- | --- | --- | --- | --- | --- |
| B1 | 79 | 25 | no binding | binds | no binding |  |
| B2 |  |  |  |  |  | no binding |
